Measurements from PMC12383261, “Mechanistic adaptation of the metazoan RabGEFs Mon1-Ccz1 and Fuzzy-Inturned” (Science Advances, 2025).

B1: HsRab23^N121I (nucleotide-free mutant of human Rab23) (natural protein)
chain: LEEDMEVAIKMVVVGNGAVGKSSMIQRYCKGIFTKDYKKTIGVDFLERQIQVNDEDVRLMLWDTAGQEEFDAITKAYYRGAQACVLVFSTTDRESFEAVSSWREKVVAEVGDIPTVLVQIKIDLLDDSCIKNEEAEALAKRLKLRFYRTSVKEDLNVNEVFKYLAEKYLQKLKQQIAEDPELTHSSSNKIGVFNTSGGSHSGQNSGTLNGGDVINLRPNKQRTKKNRNPFSSCSIP
notes: Rab23, human; also called GST-Rab23^N121I; source: Spodoptera frugiperda 21 cells (biGBac), coexpressed with Fuzzy and Inturned, purified (glutathione agarose, SEC); not shown: GST, N-terminal, cleaved
B2: Rab23^I33A/T35A (natural protein)
chain: MLEEDMEVAIKMVVVGNGAVGKSSMIQRYCKGAFAKDYKKTIGVDFLERQIQVNDEDVRLMLWDTAGQEEFDAITKAYYRGAQACVLVFSTTDRESFEAVSSWREKVVAEVGDIPTVLVQNKIDLLDDSCIKNEEAEALAKRLKLRFYRTSVKEDLNVNEVFKYLAEKYLQKLKQQIAEDPELTHSSSNKIGVFNTSGGSHSGQNSGTLNGGDVINLRPNKQRTKKNRNPFSSCSIP
B3: HsFuzzy (human Fuzzy) (natural protein)
chain: GEEGTGGTVHLLCLAASSGVPLFCRSSRGGAPARQQLPFSVIGSLNGVHMFGQNLEVQLSSARTENTTVVWKSFHDSITLIVLSSEVGISELRLERLLQMVFGAMVLLVGLEELTNIRNVERLKKDLRASYCLIDSFLGDSELIGDLTQCVDCVIPPEGSLLQEALSGFAEAAGTTFVSLVVSGRVVAATEGWWRLGTPEAVLLPWLVGSLPPQTARDYPVYLPHGSPTVPHRLLTLTLLPSLELCLLCGPSPPLSQLYPQLLERWWQPLLDPLRACLPLGPRALPSGFPLHTDILGLLLLHLELKRCLFTVEPLGDKEPSPEQRRRLLRNFYTLVTSTHFPPEPGPPEKTEDEVYQAQLPRACYLVLGTEEPGTGVRLVALQLGLRRLLLLLSPQSPTHGLRSLATHTLHALTPLL
notes: Fuzzy, human; also called His-SUMO-Fuzzy; source: Spodoptera frugiperda 21 cells (biGBac), coexpressed with Inturned and Rab23^N121I, purified (glutathione agarose, SEC)

Columns and labels:
[1] = molecular target: T1, HsInturned (human Inturned) (human, UniProt Q9ULD6 1-942); test: cryo-EM structure; HsFuzzy, HsInturned and HsRab23^N121I coexpressed in insect cells, complex purified; ~0.7 mg/ml; 0.002% lauryl maltose neopentyl glycol on grid; dimeric and trimeric particles in one sample; 50 mM tris, 200 mM NaCl, 0.5 mM TCEP, 1 mM MgCl2 (pH 8); conditions: both partners purified
T1 construct: Inturned, human; the N-terminal PDZ domain is not visible in the map; also called FLAG-Inturned; source: Spodoptera frugiperda 21 cells (biGBac), coexpressed with Fuzzy and Rab23^N121I, purified (glutathione agarose, SEC)
T1 sequence: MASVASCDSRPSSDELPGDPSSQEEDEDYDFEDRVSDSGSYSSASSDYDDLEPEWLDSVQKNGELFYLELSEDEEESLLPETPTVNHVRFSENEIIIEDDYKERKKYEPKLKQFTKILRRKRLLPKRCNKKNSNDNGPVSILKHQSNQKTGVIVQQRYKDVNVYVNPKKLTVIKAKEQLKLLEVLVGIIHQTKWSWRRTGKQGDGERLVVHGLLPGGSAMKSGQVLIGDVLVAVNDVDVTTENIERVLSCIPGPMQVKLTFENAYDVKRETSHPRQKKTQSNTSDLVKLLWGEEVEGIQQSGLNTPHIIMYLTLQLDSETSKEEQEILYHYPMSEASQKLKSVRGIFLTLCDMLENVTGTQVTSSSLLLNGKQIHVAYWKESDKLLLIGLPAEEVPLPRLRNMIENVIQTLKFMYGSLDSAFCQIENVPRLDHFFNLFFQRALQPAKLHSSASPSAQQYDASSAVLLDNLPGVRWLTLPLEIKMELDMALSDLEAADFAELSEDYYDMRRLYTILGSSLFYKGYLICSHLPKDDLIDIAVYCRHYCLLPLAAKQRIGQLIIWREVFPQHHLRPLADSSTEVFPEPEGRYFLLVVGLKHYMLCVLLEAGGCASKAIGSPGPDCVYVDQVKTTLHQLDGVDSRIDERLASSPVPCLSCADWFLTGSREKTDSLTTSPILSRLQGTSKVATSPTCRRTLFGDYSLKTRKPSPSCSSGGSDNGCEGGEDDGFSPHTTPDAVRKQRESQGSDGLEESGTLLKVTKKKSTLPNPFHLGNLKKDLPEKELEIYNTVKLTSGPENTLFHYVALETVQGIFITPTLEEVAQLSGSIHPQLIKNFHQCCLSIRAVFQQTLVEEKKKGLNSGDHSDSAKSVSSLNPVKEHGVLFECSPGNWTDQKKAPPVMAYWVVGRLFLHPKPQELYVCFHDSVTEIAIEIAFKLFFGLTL

[2] = molecular target: B3; test: as above; conditions: both partners purified
[3] = molecular target: T2, HsFuzzy-Inturned complex (cryo-EM sample) (human, UniProt Q9BT04 2-418; Q9ULD6 1-942); test: as above; conditions: both partners purified
T2 construct: Fuzzy, human; as m5; Inturned, human; as m6; Heterodimer of m5 and m6; seen alone and with Rab23^N121I in the same cryo-EM sample; also called dimeric Fuzzy-Inturned complex; source: Spodoptera frugiperda 21 cells (biGBac), coexpressed, purified (glutathione agarose, SEC)
T2 sequence 1: B3 chain
T2 sequence 2: T1 sequence

[4] = molecular target: T3, Fuzzy^LD1-Inturned^LD1 catalytic core complex (human)
T3 sequence (Q9BT04 whole entry, looked up): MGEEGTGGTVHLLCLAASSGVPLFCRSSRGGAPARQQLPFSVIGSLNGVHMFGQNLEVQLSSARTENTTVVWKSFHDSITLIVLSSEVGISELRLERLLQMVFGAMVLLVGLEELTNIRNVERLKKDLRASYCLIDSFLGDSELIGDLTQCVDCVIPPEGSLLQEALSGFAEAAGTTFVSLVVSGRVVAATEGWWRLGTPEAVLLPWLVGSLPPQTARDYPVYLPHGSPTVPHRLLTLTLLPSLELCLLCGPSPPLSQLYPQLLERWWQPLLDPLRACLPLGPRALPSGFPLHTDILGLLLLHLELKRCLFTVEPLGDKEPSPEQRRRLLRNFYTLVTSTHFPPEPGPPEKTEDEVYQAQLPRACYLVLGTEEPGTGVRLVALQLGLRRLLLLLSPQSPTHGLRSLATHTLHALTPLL
T3 sequence (Q9ULD6 whole entry, looked up): T1 sequence

Row | binding result [1] | binding result [2] | binding result [3] | Binder | stimulation of nucleotide exchange (MANT-GDP release) of Rab23^I33A/T35A by Fuzzy^LD1-Inturned^LD1, against Rab23 WT [4]
1 | binds | binds | binds | B1 | 
2 |  |  |  | B2 | 5 fold
3 | binds |  |  | B3 | 
